This note sets out measurements from patent US20210046160A1 (Synthorx, Inc., priority 2019, published 2021).

Common to all, as to format: cell-based
In series [1] the test system is CD8+ T cells. As to the kind of experiment: pSTAT5 concentration-response in human LRS-derived PBMC samples (flow cytometry): CD8+ T cells. To be noted: Table 4, 45 min. The protocol: (§1) These studies were performed at PrimityBio LLC (Fremont, Calif.). […] Staining panel for flow cytometry study of LRS-derived PBMC samples include markers for Effector T cells (Teff: CD3+, CD4+, CD8+, CD127+), NK cells (CD3-, CD16+), and Regulatory T cells (Treg: CD3+, CD4+, CD8-, IL-2Rα+, CD127-1).
(§2) The EC50 values (pg/mL) was calculated from dose response curves generated from MFI plots. […]
(In flow cytometry, cells or beads pass a laser one at a time.)

For series [2], the system named is NK cells. The series can be described thus: pSTAT5 concentration-response in human LRS-derived PBMC samples (flow cytometry): NK cells. To be noted: Table 4, 45 min. The procedure:
as §1, §2

The test system of series [3] is Treg cells. The series can be described thus: pSTAT5 concentration-response in human LRS-derived PBMC samples (flow cytometry): Treg cells. To be noted: Table 4; for EC50 for pSTAT5 signaling, Treg Cells: human LRS samples, 45 min; for CD8/Treg ratio: ratio of pSTAT5 EC50 values. The procedure:
as §1
The EC50 values (pg/mL) was calculated from dose response curves generated from MFI plots.
These studies were performed at PrimityBio LLC (Fremont, Calif.). […] Staining panel for flow cytometry study of LRS-derived PBMC samples include markers CD4, CD4+ memory central, CD4+ memory effect, CD4+ memory T cells, CD4+ Naive T cells, CD4+ T cells, CD8, CD8+ memory central, CD8+ memory effect, CD8+ memory T cells, CD8+ Naive T cells, CD8+ T cells, NK cells, and T regulatory cells.
Conjugates of Table 12 were synthesized by modification of SEQ NO. 1. These studies were performed at PrimityBio LLC (Fremont, Calif.).
The EC50 values (pg/ml) were calculated from dose response curves generated from the MFI plots.

Series [4] concerns Human whole blood. The series can be described thus: Whole blood cytokine release assay (MSD U-plex: IFN-γ, IL-4, IL-5, IL-6, IL-8, TNF-α). More on the design: unit not given here. As to conditions: for IL-4 level / IL-5 level: 90 ug/ml; for IFN-γ level, D1 / IL-6 level, D1 / IL-8 level, D1 / TNF-α level, D1 / IFN-γ level, D2 / IL-6 level, D2 / IL-8 level, D2 / TNF-α level, D2 / IFN-γ level, D3 / IL-6 level, D3 / IL-8 level, D3 / TNF-α level, D3 / IFN-γ level, D4 / IL-6 level, D4 / IL-8 level, D4 / TNF-α level, D4 / IFN-γ level, D5 / IL-6 level, D5 / IL-8 level, D5 / TNF-α level, D5 / IFN-γ level, D6 / IL-6 level, D6 / IL-8 level, D6 / TNF-α level, D6: 24 h, control conditions, conc. ug/ml: IgG4 iso 50, mouse IgG1,κ 100, PEM 90, NIVO 127, coated anti-CD3 100. The procedure:
Cytokines released from the whole blood after treatment into the supernatant were measured using the Meso Scale Discovery (MSD) U-plex kit for six analytes (IFN-γ, IL-4, IL-5, IL-6, IL-8, TNF-α).
Blood in heparin tubes from 6 healthy donors were obtained from The Scripps Research Institute (TSRI; San Diego, Calif.) blood donor service. Samples were tested on the day of the collection; donors 1-3 on one day and donors 4-6 on another day.
A volume of 180 μL of prediluted whole blood was seeded onto a 96-well tissue culture plate. Then, 20 μL of 10× final test concentration of compounds was added to the assay plate. […] In addition, positive and negative controls were included to show the detection and specification of the assay: 100 μg/mL pre-coated Ultra LEAF mouse anti-human CD3 were used as the positive controls for the assay. […] […] No treatment also served as a negative control for the assay.
After adding the compound(s) to the well, the blood was incubated at 37° C. After centrifugation of the samples, supernatant was collected 24 h post treatment and stored at −80° C. before analysis. The human cytokines ([…], TNF-α, IL-8, IL-6, IL-5, IL-4) released from the assay were quantified with the MSD U-plex kit. The detection limit of each plate is reported from the MSD software, Discovery workbench. Each plate has a slightly different detection limit.

In series [5] the test system is CD4+ T cells co-cultured with allogeneic monoDC. The series can be described thus: Allogeneic human mixed lymphocyte reaction (MLR) assay, IFN-γ secretion. As to conditions: single agents, 5 days of co-culture. From the text: The allogeneic human mixed lymphocyte reaction (MLR) assay was used to evaluate the ability of Compound B (IL-2_P65[AzK_L1_PEG30kD]-1) to enhance TCR activation as a single agent and in combination with a checkpoint inhibitor (nivolumab or pembrolizumab), as a model for cytolytic response to tumor cells presenting specific antigens or neoantigens.
Peripheral blood mononuclear cells (PBMCs) from two normal, healthy donors were used for each assay run. MonoDCs were generated by culturing monocytes isolated from PBMCs using a negative monocyte selection kit (Stemcell) in vitro for 7 days, involving addition of 1,500 IU/mL of IL-4 and 1,500 IU/mL of GM-CSF. The culture medium was replaced on Days 3 and 5. MonoDCs were collected on Day 7. On that day, CD4+ T cells were isolated from a different donor with a negative selection kit (Stemcell). […] Each run was set up in 3 replicates for each treatment condition. After 5 days of co-culture, IFN-γ secretion in culture supernatants was analyzed employing an enzyme-linked immunosorbent assay (ELISA) kit (Abcam; catalog #Ab46025). Clinical grade nivolumab was used to generate the data shown in FIG. 13, and research grade nivolumab (Selleckchem) was used to generate the data shown in FIG. 14. […] Data shown in FIGS. 12, 13, and 14 represent the mean of 3 replicates standard error of the mean from one donor pair.

Series [6] has as its system CTLL-2. The series can be described thus: CTLL-2 proliferation. To be noted: Table 4.

With “K43_30 kD: IL-2 (SEQ ID NO: 4) PEGylated with 30 kD PEG via AzK at K43; presumably SEQ ID NO: 28”, in series [1], the “EC50 for pSTAT5 signaling, CD8+ T Cells” value came to 50504 pg/mL. Also, in series [2], the “EC50 for pSTAT5 signaling, NK Cells” value stood at 9004 pg/mL. Besides, in series [3], the “EC50 for pSTAT5 signaling, Treg Cells” value was determined as 4797 pg/mL and the CD8/Treg ratio turned out to be 10.5.

Consider pembrolizumab [reference compound], for which, in series [4] (donor D1), the IL-4 level is listed as 0.10; the IL-5 level is 1.03; the “IFN-γ level, D1” value is reported as 52.78; the “IL-6 level, D1” value came out at 1.09. In series [4] (donor D1), the “IL-8 level, D1” value is 22.01 and the “TNF-α level, D1” value turned out to be 2.33. Besides, in series [4] (donor D2), the IL-4 level worked out at 0.03; the IL-5 level came out at 0.72; the “IFN-γ level, D2” value is 9.62; the “IL-6 level, D2” value came out at 0.39. Further, in series [4] (donor D2), the “IL-8 level, D2” value was 8.48 and the “TNF-α level, D2” value is given as 0.68. In addition, in series [4] (donor D3), the IL-4 level was 0.03; the IL-5 level is on record as 0.79; the “IFN-γ level, D3” value is 8.80; the “IL-6 level, D3” value was 0.92. Also, in series [4] (donor D3), the “IL-8 level, D3” value turned out to be 11.36 and the “TNF-α level, D3” value turned out to be 1.67. Further, in series [4] (donor D4), the IL-4 level worked out at 0.09; the IL-5 level result was “BDL”; the “IFN-γ level, D4” value is on record as 11.71; the “IL-6 level, D4” value came to 0.65. Also, in series [4] (donor D4), the “IL-8 level, D4” value is reported as 23.29 and the “TNF-α level, D4” value was determined as 0.97. Besides, in series [4] (donor D5), the IL-4 level entry is given as “BDL”; the IL-5 level result is “BDL”; the “IFN-γ level, D5” value was 301.71; the “IL-6 level, D5” value is 8.95. For the same substance, in series [4] (donor D5), the “IL-8 level, D5” value amounted to 95.5 and the “TNF-α level, D5” value is 5.88. For the same substance, in series [4] (donor D6), the IL-4 level result is reported as “BDL”; the IL-5 level entry was “BDL”; the “IFN-γ level, D6” value was 10.08; the “IL-6 level, D6” value turned out to be 1.06. Also, in series [4] (donor D6), the “IL-8 level, D6” value was 28.32 and the “TNF-α level, D6” value is recorded as 1.43. In addition, in series [5], the “release of IFN-γ” value was “induced the release of IFN-γ in a concentration-dependent manner”.

Turning to nivolumab [reference compound], in series [4] (donor D1), the “IFN-γ level, D1” value is on record as 29.77; the “IL-6 level, D1” value was found to be 1.28; the “IL-8 level, D1” value stood at 20.59; the “TNF-α level, D1” value turned out to be 2.35. Also, in series [4] (donor D2), the “IFN-γ level, D2” value is recorded as 9.34; the “IL-6 level, D2” value is on record as 0.48; the “IL-8 level, D2” value is 7.68; the “TNF-α level, D2” value turned out to be 0.44. Also, in series [4] (donor D3), the “IFN-γ level, D3” value is on record as 6.61; the “IL-6 level, D3” value is 1.09; the “IL-8 level, D3” value came out at 7.95; the “TNF-α level, D3” value is on record as 1.33. Moreover, in series [4] (donor D4), the “IFN-γ level, D4” value amounted to 7.56; the “IL-6 level, D4” value is 0.59; the “IL-8 level, D4” value was determined as 22.61; the “TNF-α level, D4” value was 1.21. In addition, in series [4] (donor D5), the “IFN-γ level, D5” value is listed as 256.75; the “IL-6 level, D5” value amounted to 3.29; the “IL-8 level, D5” value turned out to be 67.38; the “TNF-α level, D5” value is recorded as 4.89. For the same substance, in series [4] (donor D6), the “IFN-γ level, D6” value worked out at 9.51; the “IL-6 level, D6” value was determined as 0.62; the “IL-8 level, D6” value amounted to 19.68; the “TNF-α level, D6” value is “BDL”. Besides, the “release of IFN-γ” value in series [5] is “induced the release of IFN-γ in a concentration-dependent manner”.

As for “F42_30 kD: IL-2 (SEQ ID NO: 4) PEGylated with 30 kD PEG via AzK at F42; presumably SEQ ID NO: 27”, the “EC50 for pSTAT5 signaling, CD8+ T Cells” value in series [1] was found to be 107944 pg/mL. Besides, the “EC50 for pSTAT5 signaling, NK Cells” value in series [2] is reported as 16397 pg/mL. The “EC50, CTLL-2 proliferation” value in series [6] is recorded as 123,936 pg/mL. Further, in series [3], the “EC50 for pSTAT5 signaling, Treg Cells” value was 36856 pg/mL and the CD8/Treg ratio amounted to 2.9.
